Experimental data published in US20220324970A1 (Janssen / Centocor, published 2022).
Where two headings read alike, the source gives them in different places.

T1: hpIgR_D2-D3
T1 construct: HIS-tagged construct from HEK293 cells; also called human pIgR extracellular domain 2-domain 3 (D2-D3); hD2-D3
T1 HIS-tagged domain construct: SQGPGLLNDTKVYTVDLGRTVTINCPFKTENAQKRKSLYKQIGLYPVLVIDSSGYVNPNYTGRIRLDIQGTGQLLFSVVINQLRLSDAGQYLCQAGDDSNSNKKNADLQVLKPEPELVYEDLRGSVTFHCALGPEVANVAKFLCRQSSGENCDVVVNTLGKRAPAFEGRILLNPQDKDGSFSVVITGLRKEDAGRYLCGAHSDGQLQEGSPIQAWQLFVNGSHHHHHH

T2: hpIgR_D3
T2 construct: HIS-tagged construct from HEK293 cells; also called human pIgR extracellular domain 3 (D3); hD3
T2 HIS-tagged domain construct: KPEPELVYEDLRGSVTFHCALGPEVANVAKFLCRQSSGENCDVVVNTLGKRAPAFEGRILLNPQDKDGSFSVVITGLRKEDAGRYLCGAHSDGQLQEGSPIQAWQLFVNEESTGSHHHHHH

T3: human pIgR extracellular domain 4-domain 5 (D4-D5) (human, UniProt P01833 350-565)
T3 construct: HIS-tagged construct made in HEK293 cells; also called hpIgR domains 4-5
T3 chain: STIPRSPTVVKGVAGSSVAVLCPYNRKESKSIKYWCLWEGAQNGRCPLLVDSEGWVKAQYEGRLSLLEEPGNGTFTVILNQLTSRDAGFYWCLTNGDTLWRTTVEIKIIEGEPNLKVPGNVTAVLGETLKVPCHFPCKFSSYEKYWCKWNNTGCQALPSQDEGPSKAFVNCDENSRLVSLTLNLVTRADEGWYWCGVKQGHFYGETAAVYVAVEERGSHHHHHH


What was measured:
[1] = molecular target: T4, human pIgR, full-length, on cells (human, UniProt P01833 19-764); assay: cell-based or functional assay
T4 sequence (P01833 19-764): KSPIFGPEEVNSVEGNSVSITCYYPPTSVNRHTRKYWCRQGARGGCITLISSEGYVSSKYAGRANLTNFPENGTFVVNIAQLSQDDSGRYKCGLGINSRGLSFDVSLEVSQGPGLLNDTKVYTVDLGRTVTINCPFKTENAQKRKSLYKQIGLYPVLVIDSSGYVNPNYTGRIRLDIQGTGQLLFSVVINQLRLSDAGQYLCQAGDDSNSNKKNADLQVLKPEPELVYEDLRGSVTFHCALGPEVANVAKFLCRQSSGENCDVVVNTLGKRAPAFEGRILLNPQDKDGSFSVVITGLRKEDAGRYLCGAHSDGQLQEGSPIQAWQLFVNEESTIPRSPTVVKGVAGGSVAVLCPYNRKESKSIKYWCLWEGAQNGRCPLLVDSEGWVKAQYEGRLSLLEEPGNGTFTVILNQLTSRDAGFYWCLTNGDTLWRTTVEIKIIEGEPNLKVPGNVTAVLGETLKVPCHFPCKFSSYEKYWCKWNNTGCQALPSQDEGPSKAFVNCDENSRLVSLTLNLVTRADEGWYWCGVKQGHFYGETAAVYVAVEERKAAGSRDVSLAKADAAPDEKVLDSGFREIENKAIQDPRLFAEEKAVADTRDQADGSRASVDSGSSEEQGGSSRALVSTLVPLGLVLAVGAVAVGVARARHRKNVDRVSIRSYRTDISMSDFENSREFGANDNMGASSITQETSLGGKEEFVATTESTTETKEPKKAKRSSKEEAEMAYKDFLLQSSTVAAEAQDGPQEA

[2] = molecular target: T1, hpIgR_D2-D3; assay: ECL (MSD) heat map, HIS-tagged construct captured via anti-HIS, anti-human-Fc detection
Experimental: (§1) The Electrochemiluminescence assay was performed as follows. A meso-scale discovery (MSD) platform was used for conducting epitope mapping and epitope burial studies. To test the binding of VHH-mono-Fc molecules to purified pIgR protein constructs, Streptavidin MSD plates were coated with a biotinylated anti-HIS antibody (2 μg/ml in PBS) for 1 hour at RT with 1000 rpm, washed 3× with PBT (PBS+0.1% Tween-20), incubated with blocking buffer for 1 hour at RT, incubated with His-tagged pIgR proteins (10 μg/ml in PBS) for 2 hours at RT with 1000 rpm, washed 3× with PBT, incubated with VHH-mono-Fc molecules (100 μg/ml in PBS) for 2 hours at RT with 1000 rpm, washed 3× with PBT, incubated with ruthenylated-anti-human-Fc antibody (2 μg/ml in PBS) for 1 hour at RT with 1000 rpm, washed 3× with PBT and read plates in 40 ul reading buffer using the MSD imager. ECLU values were plotted as a heatmap.

[3] = molecular target: T5, human pIgR extracellular domain (ECD) (human, UniProt P01833 19-638); assay: ECL (MSD), hpIgR-ECD coated, anti-VHH detection
T5 construct: also called hpIgR ECD
T5 sequence (P01833 other isoform, or with tags, fused parts or gaps): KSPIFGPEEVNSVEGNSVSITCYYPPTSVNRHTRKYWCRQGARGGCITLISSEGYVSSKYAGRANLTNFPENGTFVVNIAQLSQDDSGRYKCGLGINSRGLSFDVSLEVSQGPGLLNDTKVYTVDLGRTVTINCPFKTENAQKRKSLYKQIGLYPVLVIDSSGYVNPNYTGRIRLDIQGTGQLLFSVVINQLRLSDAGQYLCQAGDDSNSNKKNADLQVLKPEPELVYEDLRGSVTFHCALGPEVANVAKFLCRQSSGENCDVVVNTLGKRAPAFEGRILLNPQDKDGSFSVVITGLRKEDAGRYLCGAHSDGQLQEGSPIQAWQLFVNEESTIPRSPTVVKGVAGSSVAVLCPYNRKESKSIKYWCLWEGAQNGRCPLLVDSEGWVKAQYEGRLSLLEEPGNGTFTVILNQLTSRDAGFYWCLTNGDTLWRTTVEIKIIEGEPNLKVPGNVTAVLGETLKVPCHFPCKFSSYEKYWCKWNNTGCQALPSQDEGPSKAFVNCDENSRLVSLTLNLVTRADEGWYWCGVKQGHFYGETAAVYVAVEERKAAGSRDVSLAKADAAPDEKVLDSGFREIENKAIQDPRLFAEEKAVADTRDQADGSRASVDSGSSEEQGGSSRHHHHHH

[4] = molecular target: T4, human pIgR, full-length, on cells; assay: flow cytometry on MDCK-hpIgR cells; summary table, repeats Table 1
Experimental: Flow Cytometry was performed as follows. To test whether VHH-mono-Fc molecules recognize cell-surface hpIgR, Madin-Darby canine kidney (MDCK) cells engineered to express full-length hpIgR were used. Cells were cultured in Dulbecco's modified Eagle's medium containing 10% fetal calf serum at 37° C. with 5% CO₂. Cells were split into equal fractions (≈70,000 cells) and incubated with increasing concentrations of VHH-mono-Fc molecules for 30 min at 4 C. […] Cells were washed twice with cold staining buffer, resuspended in running buffer and analyzed with an iQue Screener (IntelliCyt Corporation). Binding was assessed by RL1 (A647) Geomeans from the live cell population and EC50 was calculated by fitting log VHH concentration versus MFI in Prism (Graphpad).

[5] = molecular target: T4, human pIgR, full-length, on cells; assay: as above; remark: listed apart in the source
[6] = molecular target: T5, human pIgR extracellular domain (ECD); assay: ECL (MSD), anti-VHH detection against anti-Fc detection
Experimental: To check whether VHH recognizes a buried epitope on pIgR, EC₅₀ values were measured for VHH-mono-Fc molecules binding to hpIgR-ECD protein by electrochemiluminescence using two different detection antibodies, an anti-Fc antibody and an anti-VHH antibody. pIgR ECD (10 μg/ml in PBS) was coated on high-bind MSD plates for 2 hours at RT with 1000 rpm, incubated with blocking buffer for 1 hour at RT, incubated with VHH-mono-Fc molecules (increasing concentrations in PBS) for 2 hours at RT with 1000 rpm, washed 3× with PBT, incubated with ruthenylated secondary antibody (2 μg/ml in PBS) for 1 hour at RT with 1000 rpm, washed 3× with PBT and read plates in 40 ul reading buffer using the MSD imager. EC50 was calculated by fitting log VHH concentration versus log ECLU in Prism (Graphpad). The increase in EC₅₀ (>50-fold) due to anti-VHH detection was used as a measure to determine whether VHH recognized buried epitope on pIgR.

[7] = molecular target: T5, human pIgR extracellular domain (ECD); assay: BLI; summary table, repeats Table 1
[8] = molecular target: T2, hpIgR_D3; assay: ECL (MSD) heat map, HIS-tagged construct captured via anti-HIS, anti-human-Fc detection;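 also: VHH-mono-Fc molecules tested at 100 µg/ml for 2 h on captured His-tagged pIgR constructs (10 µg/ml), read-out as electrochemiluminescence units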
Experimental: (§2) A meso-scale discovery (MSD) platform was used for conducting epitope mapping and epitope burial studies. To test the binding of VHH-mono-Fc molecules to purified pIgR protein constructs, Streptavidin MSD plates were coated with a biotinylated anti-HIS antibody (2 μg/ml in PBS) for 1 hour at RT with 1000 rpm, washed 3× with PBT (PBS+0.1% Tween-20), incubated with blocking buffer for 1 hour at RT, incubated with His-tagged pIgR proteins (10 μg/ml in PBS) for 2 hours at RT with 1000 rpm, washed 3× with PBT, incubated with VHH-mono-Fc molecules (100 μg/ml in PBS) for 2 hours at RT with 1000 rpm, washed 3× with PBT, incubated with ruthenylated-anti-human-Fc antibody (2 μg/ml in PBS) for 1 hour at RT with 1000 rpm, washed 3× with PBT and read plates in 40 ul reading buffer using the MSD imager. ECLU values were plotted as a heatmap.
(§3) Binding of VHH-mFc molecules were tested to immobilized pIgR constructs by the electrochemiluminescence method.

[9] = molecular target: T6, human pIgR extracellular domain 5 (D5) (human, UniProt P01833 460-565); assay: as above
T6 construct: HIS-tagged construct made in HEK293 cells; also called hpIgR domain 5
Experimental: as §2, §3

[10] = molecular target: T7, human pIgR extracellular domain 2 (D2) (human, UniProt P01833 128-242); assay: as above
T7 construct: HIS-tagged construct made in HEK293 cells; also called hpIgR domain 2
Experimental: as §2, §3

[11] = molecular target: T8, human pIgR extracellular domain 1 (D1) (human, UniProt P01833 19-127); assay: as above
T8 construct: HIS-tagged construct made in HEK293 cells; also called hpIgR domain-1
T8 sequence (P01833 other isoform, or with tags, fused parts or gaps limits assumed): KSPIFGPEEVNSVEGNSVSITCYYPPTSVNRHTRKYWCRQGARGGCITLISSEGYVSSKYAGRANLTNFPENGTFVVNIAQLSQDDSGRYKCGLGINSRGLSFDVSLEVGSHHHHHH
Experimental: as §2, §3

[12] = molecular target: T4, human pIgR, full-length, on cells; assay: flow cytometry on MDCK-hpIgR cells
[13] = molecular target: T5, human pIgR extracellular domain (ECD); assay: BLI; summary table, repeats Table 1; remark: listed apart in the source
[14] = molecular target: T5, human pIgR extracellular domain (ECD); assay: ECL (MSD), hpIgR-ECD coated, anti-Fc detection
[15] = molecular target: T3, human pIgR extracellular domain …; assay: ECL (MSD) heat map in ECLU: HIS-tagged construct captured via anti-HIS, VHH-mono-Fc 100 ug/ml, anti-human-Fc detection
Experimental: as §1

[16] = molecular target: T4, human pIgR, full-length, on cells; assay: cell-based or functional assay; remark: listed apart in the source
[17] = molecular target: T5, human pIgR extracellular domain (ECD); assay: BLI (Octet), VHH-mono-Fc and hpIgR ectodomain
[18] = molecular target: T9, human pIgR extracellular domain 1-domain 2 (D1-D2) (human, UniProt P01833 19-240); assay: ECL (MSD) heat map, HIS-tagged construct captured via anti-HIS, anti-human-Fc detection
T9 construct: HIS-tagged construct made in HEK293 cells
T9 sequence (P01833 other isoform, or with tags, fused parts or gaps limits assumed): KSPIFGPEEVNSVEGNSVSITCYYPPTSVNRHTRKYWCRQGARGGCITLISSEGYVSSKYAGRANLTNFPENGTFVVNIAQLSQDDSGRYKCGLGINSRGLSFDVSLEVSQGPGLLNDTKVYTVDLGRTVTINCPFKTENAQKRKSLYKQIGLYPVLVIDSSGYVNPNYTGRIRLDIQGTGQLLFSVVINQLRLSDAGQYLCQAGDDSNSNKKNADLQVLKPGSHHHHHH
Experimental: as §1

[19] = molecular target: T6, human pIgR extracellular domain 5 (D5); assay: as above; remark: listed apart in the source
Experimental: as §1

[20] = molecular target: T3, human pIgR extracellular domain …; assay: BLI (Octet RED384), 1:1 fit, 25 C, PBS
[21] = molecular target: T5, human pIgR extracellular domain (ECD); assay: BLI (Octet RED384), 1:1 fit, 25 C, PBS
[22] = molecular target: T3, human pIgR extracellular domain …; assay: BLI (Octet RED384), 1:1 fit, 25 C, PBS; column kdis
[23] = molecular target: T5, human pIgR extracellular domain (ECD); assay: as above
[24] = molecular target: T4, human pIgR, full-length, on cells; assay: cell-based or functional assay; remark: listed apart in the source
[25] = molecular target: T3, human pIgR extracellular domain …; assay: BLI (Octet RED384), 1:1 fit, 25 C, PBS; antigen printed 'hD4 D5'
Experimental: (§4) Bio-layer Interferometry was performed as follows. […] Data were collected with Octet Data Acquisition version 7.1.0.87 (ForteBio) and analyzed using Octet Data Analysis version 7.1 (ForteBio). To measure binding kinetics between VHH-mono-Fc molecules and HIS-tagged pIgR proteins, VHH-mono-Fc was immobilized on amine-reactive generation-2 (ARG2) biosensors according to manufacturer's instructions and increasing concentrations of pIgR proteins were exposed to sensor-immobilized VHH. In some cases, HIS-tagged pIgR proteins were immobilized on anti-HIS biosensors and exposed to increasing concentrations of VHH-mono-Fc molecules. Association and dissociation rates were measured by the shift in wavelength (nm). […] All reactions were performed at 25° C. in PBS.

[26] = molecular target: T3, human pIgR extracellular domain …; assay: BLI (Octet RED384), 1:1 fit, 25 C, PBS; column kdis; antigen printed 'hD4 D5'
Experimental: as §4

Transcytosis (Fold Incr.) [1]	EC50 [3]	EC50 [4]	EC50 [5]	Fold change in EC50 [6]	Kd [7]	EC50 [12]	Kd [13]	EC50 [14]	For. Trans. (Fold Incr.) [16]	Rev. Trans (Fold Incr.) [16]	Kd [17]	Kd [21]	kon [21]	Binder	binding result [2]	binding result [8]	binding result [9]	binding result [10]	binding result [11]	binding result [18]	also measured
1.3 fold	31.1 nM	36.4 nM	36.4 nM	2.5 fold	521 nM	36.4 nM	521 nM	12.4 nM	1.9 fold	3.3 fold	521 nM	–	–	VHH7-linker-mono-Fc protein (Fc fusion, made in CHO cells; also called VHH7-mono-Fc; hpIgR_198) EVQVVESGGGLVQAGGSLRLACVASRSIGSINVMGWYRQAPGKQRDLVARITGGGSTHYAESVKGRFTISRDNAKNTVYLQMNSLEPEDTAVYYCASMVNPIITAWGTIGVREIPDYDYWGQGTQVTVSSEPKTPKPQPQPQLQPQPNPTTESKSPKSPAPELLGGPSVFLFPPKPKDTLMISRTPEVTCVVVDVSHEDPEVKFNWYVDGVEVHNAKTKPREEQYNSTYRVVSVLTVLHQDWLNGKEYKCKVSNKALPAPIEKTISKAKGQPREPQVYTKPPSREEMTKNQVSLSCLVKGFYPSDIAVEWESNGQPENNYKTTVPVLDSDGSFRLASYLTVDKSRWQQGNVFSCSVMHEALHNHYTQKSLSLSPGK	no binding (tested: 100 ug/ml (single concentration))	no binding (tested: 100 ug/ml (single concentration))	no binding (tested: 100 ug/ml (single concentration))	no binding (tested: 100 ug/ml (single concentration))	no binding (tested: 100 ug/ml (single concentration))	–	binding result [15]: binds
32 fold	0.8 nM	1.5 nM	1.5 nM	3.2 fold	19 nM	1.5 nM	19 nM	0.3 nM	24.2 fold	10.3 fold	19 nM	27.9 nM	113000 M⁻¹ s⁻¹	VHH11-linker-mono-Fc protein (Fc fusion, made in CHO cells; also called VHH11-mono-Fc; hpIgR_250) EVQVVESGGGLVQAGGSLRLSCAASGRTFTTYRMGWFRQAPGKEREFVAAIRWSGGRTLYADSVKGRFTISRDNAKNTAYLQMNNLRPEDTAVYYCAADLAEYSGTYSSPADSPAGYDYWGQGTQVTVSSEPKTPKPQPQPQLQPQPNPTTESKSPKSPAPELLGGPSVFLFPPKPKDTLMISRTPEVTCVVVDVSHEDPEVKFNWYVDGVEVHNAKTKPREEQYNSTYRVVSVLTVLHQDWLNGKEYKCKVSNKALPAPIEKTISKAKGQPREPQVYTKPPSREEMTKNQVSLSCLVKGFYPSDIAVEWESNGQPENNYKTTVPVLDSDGSFRLASYLTVDKSRWQQGNVFSCSVMHEALHNHYTQKSLSLSPGK	no binding (tested: 100 ug/ml (single concentration))	no binding (tested: 100 ug/ml (single concentration))	–	no binding (tested: 100 ug/ml (single concentration))	no binding (tested: 100 ug/ml (single concentration))	no binding (tested: 100 ug/ml (single concentration))	binding result [19]: no binding (tested: 100 ug/ml (single concentration)); Kd [20]: 15.2 nM; kon [20]: 184000 M⁻¹ s⁻¹; koff [22]: 0.00281 s⁻¹; koff [23]: 0.00314 s⁻¹; increase in their apical concentration relative to control VHH (MDCK-hpIgR monolayers) [24]: > 10 fold
6.9 fold	178 nM	4.3 nM	4.3 nM	592 fold	11 nM	4.3 nM	11 nM	0.3 nM	8.9 fold	2.1 fold	11 nM	10 nM	145000 M⁻¹ s⁻¹	VHH5-linker-mono-Fc protein (Fc fusion, made in CHO cells; also called VHH5-mono-Fc; hpIgR_175) QVQLVESGGGLVQAGGSLRLSCAASGRTFSSYAMGWFRQAPGKEREFVAAITWNGGTTYYADSVKGRFTISRDNAKNTVYLQMNSLKPEDTAVYYCAADPFNQGYWGQGTQVTVSSEPKTPKPQPQPQLQPQPNPTTESKSPKSPAPELLGGPSVFLFPPKPKDTLMISRTPEVTCVVVDVSHEDPEVKFNWYVDGVEVHNAKTKPREEQYNSTYRVVSVLTVLHQDWLNGKEYKCKVSNKALPAPIEKTISKAKGQPREPQVYTKPPSREEMTKNQVSLSCLVKGFYPSDIAVEWESNGQPENNYKTTVPVLDSDGSFRLASYLTVDKSRWQQGNVFSCSVMHEALHNHYTQKSLSLSPGK	no binding (tested: 100 ug/ml (single concentration))	no binding (tested: 100 ug/ml (single concentration))	no binding (tested: 100 ug/ml (single concentration))	no binding (tested: 100 ug/ml (single concentration))	no binding (tested: 100 ug/ml (single concentration))	no binding (tested: 100 ug/ml (single concentration))	Kd [25]: 11.6 nM; kon [25]: 111000 M⁻¹ s⁻¹; koff [23]: 0.00145 s⁻¹; koff [26]: 0.00128 s⁻¹
